The record followed here is patent US20030129688A1 (published 2003).

Where a chain is given by its changes, count along the chain named. Numbers in names are those of the source. Read-outs that look alike come from different tables or passages of the source. Ends that are not written are not given here.

For assay [1], the target named is ErbB-2/3 receptor-Ig fusion (human, UniProt P04626 23-652; P04626 23-645; P21860 20-643; P04626 23-645). The experiment in a line: phage ELISA, competition with soluble ErbB-2/3-Ig. (In general: An ELISA detects its analyte on a solid surface through an enzyme-linked reagent.)
Procedure: (§1) Microtiter plates (Nunc Maxisorp™ 96-well plates, Inter Med, Denmark) for phage ELISA were prepared as follows. The wells were precoated overnight with 0.5 μg of rabbit anti-human IgG (Fc gamma fragment-specific) antibodies (Jackson Immunoresearch, West Grove, Pa.) in 100 μL 50 mM NaCO₃ (pH 9.6). The wells were blocked for 30 minutes (min) with 200 μL PBS containing 0.1% bovine serum albumin (BSA) and rinsed with wash buffer (PBS containing 0.05% Tween 20™). The wells were then coated with 0.1 μg ErbB-2/3-Ig in binding buffer (PBS, 0.1% BSA, 0.05% Tween 20™) for 1 h, and washed again.
(§2) Following incubation for 2 h at room temperature, plates were washed extensively and treated with a 1:900 dilution of anti-M13 horseradish peroxidase conjugate (Pharmacia, Piscataway, N.J.) for 20 min. The amount of phage binding was determined by assaying horseradish peroxidase activity using o-phenylenediamine dihydrochloride) substrate solution (Sigma Chemical Company, St. Louis, Mo.).
Assay [2] addresses ErbB-3 receptor-Ig fusion (human) (UniProt P21860). In words: phage ELISA, competition with soluble ErbB-3-Ig.
Assay [3] addresses ErbB-4 receptor-Ig fusion (human) (UniProt Q15303). The experiment in a line: phage ELISA, competition with soluble ErbB-4-Ig.
The target in assay [4] is ErbB-3 receptor-Ig fusion (human) (UniProt P21860). The experiment in a line: 125I-HRG-β1 177-244 displacement, ErbB-3-Ig on plate.
Assay [5] deals with ErbB-4 receptor-Ig fusion (human) (UniProt Q15303). The experiment in a line: 125I-HRG-β1 177-244 displacement, ErbB-4-Ig on plate.
Assay [6] addresses T1, ErbB-3 receptor-Ig fusion (human, UniProt P21860 20-643; P21860 20-636). In words: phage ELISA, competition with soluble ErbB-3-Ig.
Procedure: as §1, §2
For assay [7], the target named is T2, ErbB-4 receptor-Ig fusion (human, UniProt Q15303 26-651; Q15303 26-640). In words: phage ELISA, competition with soluble ErbB-4-Ig; reference.
Assay [8] has as its target T2, ErbB-4 receptor-Ig fusion. In words: phage ELISA, competition with soluble ErbB-4-Ig.
The target of assay [9] is T1, ErbB-3 receptor-Ig fusion. In words: phage ELISA, competition with soluble ErbB-3-Ig; reference.
For assay [10], the target named is T1, ErbB-3 receptor-Ig fusion. The experiment in a line: phage ELISA, competition with soluble ErbB-3-Ig. The source holds these as a separate data set.
In assay [11] the target is T2, ErbB-4 receptor-Ig fusion. In words: phage ELISA, competition with soluble ErbB-4-Ig; against HRG8.
Assay [12] has as its target T1, ErbB-3 receptor-Ig fusion. In words: phage ELISA, competition with soluble ErbB-3-Ig; against HRG8.
Procedure: as §1, §2
The target in assay [13] is ErbB-2/3 receptor-Ig fusion (human) (UniProt P04626). In words: 125I-HRG displacement, ErbB-2/3-Ig on plate.
In assay [14] the target is ErbB-2/3 heterodimers on MCF7 breast cancer carcinoma cells (UniProt P04626). The experiment in a line: cell-based or functional assay.
Assay [15] addresses ErbB-2/3 receptor-Ig fusion (human) (UniProt P04626). In words: phage ELISA, competition with soluble ErbB-2/3-Ig.

T2 sequence (Q15303 other isoform, or with tags, fused parts or gaps): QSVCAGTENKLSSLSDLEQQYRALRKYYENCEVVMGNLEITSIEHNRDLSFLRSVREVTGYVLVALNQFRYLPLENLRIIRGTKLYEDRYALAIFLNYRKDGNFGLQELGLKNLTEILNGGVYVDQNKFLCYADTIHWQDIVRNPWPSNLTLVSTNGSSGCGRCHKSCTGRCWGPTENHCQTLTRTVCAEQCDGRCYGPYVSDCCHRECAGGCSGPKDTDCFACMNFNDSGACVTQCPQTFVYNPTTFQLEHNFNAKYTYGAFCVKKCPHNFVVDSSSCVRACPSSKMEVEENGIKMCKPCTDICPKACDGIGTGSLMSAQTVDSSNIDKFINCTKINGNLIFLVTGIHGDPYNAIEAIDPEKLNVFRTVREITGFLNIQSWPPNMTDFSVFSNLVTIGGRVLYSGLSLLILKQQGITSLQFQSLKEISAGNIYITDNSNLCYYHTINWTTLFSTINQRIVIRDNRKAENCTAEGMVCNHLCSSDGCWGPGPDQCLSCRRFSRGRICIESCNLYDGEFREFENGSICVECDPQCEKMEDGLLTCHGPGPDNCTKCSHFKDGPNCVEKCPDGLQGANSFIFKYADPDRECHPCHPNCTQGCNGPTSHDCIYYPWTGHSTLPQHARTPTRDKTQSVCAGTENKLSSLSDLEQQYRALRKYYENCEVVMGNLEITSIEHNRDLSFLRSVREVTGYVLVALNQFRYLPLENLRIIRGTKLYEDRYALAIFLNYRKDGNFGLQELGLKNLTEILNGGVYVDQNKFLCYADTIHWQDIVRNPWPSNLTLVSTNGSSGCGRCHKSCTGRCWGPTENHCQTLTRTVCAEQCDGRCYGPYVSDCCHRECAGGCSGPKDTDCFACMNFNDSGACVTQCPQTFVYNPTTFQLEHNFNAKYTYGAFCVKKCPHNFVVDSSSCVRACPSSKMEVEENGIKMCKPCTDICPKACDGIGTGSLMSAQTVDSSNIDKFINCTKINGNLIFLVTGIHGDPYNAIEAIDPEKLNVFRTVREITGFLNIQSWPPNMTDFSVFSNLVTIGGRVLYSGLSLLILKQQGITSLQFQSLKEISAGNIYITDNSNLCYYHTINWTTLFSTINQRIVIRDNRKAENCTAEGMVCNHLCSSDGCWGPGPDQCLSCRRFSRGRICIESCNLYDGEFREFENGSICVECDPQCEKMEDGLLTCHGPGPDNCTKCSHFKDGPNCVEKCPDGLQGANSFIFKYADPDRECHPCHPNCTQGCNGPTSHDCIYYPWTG
Sequence of ErbB-4 receptor-Ig fusion (human) (Q15303 other isoform, or with tags, fused parts or gaps): as above

B1: HRG4 (HRG-β1 147-227 fused to pIII 247, displayed on phage) (ligand, human, UniProt Q02297-6 147-227, looked up, not shown: large carriers)
chain: YVSSESPIRISVSTEGANTSSSTSTSTTGTSHLVKCAEKEKTFCVNGGECFMVKDLSNPSRYLCKCPNEFTGDRCQNYVMA
notes: range 147-227; monovalent phage display; also called pHRG4-g3
Turning to B1, the response in assay [1] was half-maximal at 38 nM (EC50).

B2: HRG5 (HRG-β1 147-244 fused to pIII 247, displayed on phage) (ligand, human, UniProt Q02297-6 147-244, looked up, not shown: large carriers)
chain: YVSSESPIRISVSTEGANTSSSTSTSTTGTSHLVKCAEKEKTFCVNGGECFMVKDLSNPSRYLCKCPNEFTGDRCQNYVMASFYKHLGIEFMEAEELY
notes: monovalent phage display; also called pHRG5-g3
As to B2, in assay [1], the EC50 turned out to be 4.7 nM.

B3: HRG2 (HRG-β1 177-244 fused to pIII 247, displayed on phage) (ligand, human, UniProt Q02297-6 177-244, looked up, not shown: large carriers)
chain: SHLVKCAEKEKTFCVNGGECFMVKDLSNPSRYLCKCPNEFTGDRCQNYVMASFYKHLGIEFMEAEELY
notes: monovalent phage display; also called pHRG2-g3
For B3, the EC50 in [2] is 13 nM; in [3], 19 nM; in [1] it was 6 nM.

B4: recombinantly produced HRG-β1 177-244 (ligand, human, UniProt Q02297-6 177-244, looked up)
chain: B3 chain
Turning to B4, the values for the EC50 in assay [4] and in assay [5] were 9 nM and 14.8 nM, respectively.

B5: HRG-β1 177-244 F216A displayed on phage (ligand, not shown: large carriers; small tags and cut ends)
chain: B3 chain with F40A
notes: from pHRG2-g3; monovalent phage display
As for B5, the EC50 in [6] was found to be 500 nM.

B6: HRG8 (HRG-β1 177-228 fused via (GGGS)3 to pIII 323, displayed on phage) (ligand, human, not shown: large carriers)
chain: SHLVKCAEKEKTFCVNGGECFMVKDLSNPSRYLCKCPNEFTGDRCQNYVMASGGGSGGGSGGGS
notes: monovalent phage display; also called pHRG8-g3; wild-type HRG-β1 EGF-phage
Regarding B6, the “EC50 (wt)/EC50 (mut)” value in assay [7] and in assay [9] was 1 ratio in each case. The concentration giving a half-maximal response (EC50) in assay [8] stood at 163 nM; in [1] it was 11 nM; in assay [10], 135 nM.

B7: HRG-β1 EGF variant I2 displayed on phage (ligand, human, not shown: large carriers)
chain: B6 chain with N47H, M50I
notes: monovalent phage display, pHRG8-g3 background
In the case of B7, the entries for the “EC50 (wt)/EC50 (mut)” value in [11] and in assay [12] were 10 ratio and 20 ratio, respectively.

B8: soluble wild-type HRG-β1 EGF (HRG8) (ligand, human, UniProt Q02297-6 177-228, looked up)
chain: SHLVKCAEKEKTFCVNGGECFMVKDLSNPSRYLCKCPNEFTGDRCQNYVMAS
modifications: ends and bridges not checked; cysteine pairing not given here
For the molecule B8, the EC50 in [13] was 0.033 nM. The same molecule gave a KIRA EC50 (ErbB-2 tyrosine phosphorylation on MCF7 cells) in [14] of 0.212 nM.

B9: HRG7 (HRG-β1 177-228 fused to pIII 247, displayed on phage) (ligand, human, UniProt Q02297-6 177-228, looked up, not shown: large carriers)
chain: B8 chain
modifications: not fully specified (C-terminus); ends and bridges not checked
Regarding B9, the EC50 in assay [15] stood at 42 nM.

B10: HRG6 (HRG-β1 177-227 fused to pIII 247, displayed on phage) (ligand, human, UniProt Q02297-6 177-227, looked up, not shown: large carriers)
chain: SHLVKCAEKEKTFCVNGGECFMVKDLSNPSRYLCKCPNEFTGDRCQNYVMA
modifications: not fully specified (C-terminus); ends and bridges not checked
notes: monovalent phage display; Ala227 restored from pHRG1-g3; also called pHRG6-g3
B10 returned an EC50 in assay [1] of 40 nM. This counts as double-digit nanomolar.

B11: HRG73 combination variant displayed on phage (ligand, human, not shown: large carriers)
chain: SHLVKCGEEREGFCVNGGECYRVKTYGYLMCKCPNEFTGDRCQHYVIASGGGSGGGSGGGS
notes: monovalent phage display; also called B3+D4+E2+I2
For the molecule B11, the “EC50 (wt)/EC50 (mut)” value was found to be 16 ratio in assay [11] and 56 ratio in [12].

B12: HRG11 (HRG-β1 177-230 fused via GGGSGGG to pIII 247, displayed on phage) (ligand, human, not shown: large carriers)
chain: SHLVKCAEKEKTFCVNGGECFMVKDLSNPSRYLCKCPNEFTGDRCQNYVMASFYGGGSGGG
notes: monovalent phage display; also called pHRG11-g3
In assay [1], B12 yielded an EC50 of 19 nM.

B13: HRG-β1 EGF variant G1 displayed on phage (ligand, not shown: large carriers; small tags and cut ends)
chain: SHLVKCAEKEKTFCVNGGECFMVKDLSNPSRYLCRCSLEFTGDRCQNYVMAS-{(GGGS)3-M13 pIII C‑terminal fragment from residue 323}
modifications: ends and bridges not checked
notes: as for B7
B13: the figures for the “EC50 (wt)/EC50 (mut)” value in [11] and in [12] were 1.6 ratio and 1.2 ratio, respectively.

By EC50 is commonly meant the concentration that produces a half-maximal response. Read a low EC50 as greater potency.
